Experimental data: patent publication US20150267232A1, “IN VIVO AND IN VITRO CARBENE INSERTION AND NITRENE TRANSFER REACTIONS CATALYZED BY HEME ENZYMES” (California Institute of Technology, priority 2012, published 2015)

Assay: Small-scale anaerobic C—H amination with purified enzymes, azide 1
Assay type: biochemical
Settings: benzosultam 3
Procedure: Activities are presented in TTN. […] Yields and enantioselectivies determined by HPLC analysis. * (S−R)/(S+R). nd=not determined.
Enzymes used as purified catalysts were expressed as previously described (Lewis, J. C. et al., Proc. Natl. Acad. Sci. U.S.A. 106, 16550-16555 (2009)), and were purified by anion-exchange chromatography (for holoenzymes) or Ni-NTA chromatography (for isolated heme domains). Concentrations of P450 or P411 enzymes were determined as previously reported (Omura, T. & Sato, R., J. Biol. Chem. 239, 2370-2378 (1964); Vatsis, K. P. et al., J. Inorg. Biochem. 91, 542-553 (2002)). Small-scale reactions (400 μL) were conducted in 2 mL crimp vials containing degassed buffer (0.1 M potassium phosphate pH 8.0), enzyme (0.1-0.5% catalyst loading) and oxygen depletion system (10× stock solution containing 14,000 U/mL catalase, 1,000 U/mL glucose oxidase dissolved in 0.1 M KPi pH 8.0). Enzyme (P450 or P411) solution and oxygen depletion mixture were added to the vial with a small stir bar before crimp-sealing. […] Reactions were stirred at room temperature for 24 h under positive argon pressure.
Small-scale reactions (400 μL) were conducted in 2 mL crimp vials (Agilent Technologies, San Diego, Calif.) containing buffer (0.1 M potassium phosphate pH 8.0), enzyme (0.1-0.5% catalyst loading) and oxygen depletion system (10× stock solution containing 14,000 U/mL catalase, 1,000 U/mL glucose oxidase dissolved in 0.1 M KPi pH 8.0). Enzyme (P450 or P411) solution and oxygen depletion mixture were added to the vial with a small stir bar before crimp-sealing. […] In the meantime, the headspace of the sealed 2 mL reaction vial with the P450 solution was made anaerobic by flushing argon over the protein solution (with no bubbling). The buffer/reductant/glucose solution (270 μL) was syringed into the reaction vial with continuous argon purge of the vial headspace. An arylsulfonyl azide solution in DMSO (10 μL, 80 mM) was added to the reaction vial via a glass syringe, and the reaction was left stirring for 24 h at room temperature under positive argon pressure. […] Reactions were quenched by adding 30 μL 3 M HCl under argon. To the vials were then added acetonitrile (430 uL) and internal standard (o-toluenesulfonamide 10 mM in 50% acetonitrile 50% water, 1 mM final concentration). This mixture was then transferred to a microcentrifuge tube, and centrifuged at 17,000×g for 10 minutes. A portion (20 μL) of the supernatant was then analyzed by HPLC. For LC-MS analysis, the quenched reaction mixture was extracted twice with ethyl acetate (2×350 μL), dried under a light argon stream and resuspended in 50% water-acetonitrile (100 μL). For chiral HPLC the reactions were extracted as above with ethyl acetate, dried and resuspended in DMSO (100 μL) and then C18 purified as described above. The C18 purified material was dried, and resuspended in acetonitrile, and then injected onto the chiral HPLC system for analysis. Sultam formation was quantified comparison of integrated peak areas of internal standard and sultam at 220 nm to a calibration curve made using synthetically produced sultam and internal standard.
Purified enzymes were screened for activity in small scale reactions (400 μL) under anaerobic conditions as described above. Reactions were carried out using 0.5% mol of enzyme (10 μM) with respect to the triethylsulfonyl azide substrate 1 (2 mM). Standard reaction conditions described above were employed. Diethyl benzosultam product 3 (FIG. 18) was analyzed and quantified by reversed-phase HPLC (see above).
Small-scale reactions (400 μL total volume) were set up and worked up. Control reactions were performed with both the holoenzyme (BM3 with covalently linked reductase domain) and the isolated heme domain. […] Reactions of the complete system with heme domain (CS heme) included 2 mM Na2S2O4 rather than NADPH unless otherwise indicated in the table. […]

B1: ABC-CIS-A268T: BM3-CIS + C400S + A268T (9-10A TS + F87V, C400S) (protein, listed as Bacillus megaterium)
chain: TIKEMPQPKTFGELKNLPLLNTDKPVQALMKIADELGEIFKFEAPGRVTRYLSSQRLIKEACDESRFDKNLSQALKFARDFAGDGLVTSWTHEKNWKKAHNILLPSFSQQAMKGYHAMMVDIAVQLVQKWERLNADEHIEVSEDMTRLTLDTIGLCGFNYRFNSFYRDQPHPFIISMVRALDEVMNKLQRANPDDPAYDENKRQFQEDIKVMNDLVDKIIADRKARGEQSDDLLTQMLNGKDPETGEPLDDGNIRYQIITFLIAGHETTSGLLSFALYFLVKNPHVLQKVAEEAARVLVDPVPSYKQVKQLKYVGMVLNEALRLWPTAPAFSLYAKEDTVLGGEYPLEKGDEVMVLIPQLHRDKTVWGDDVEEFRPERFENPSAIPQHAFKPFGNGQRASIGQQFALHEATLVLGMMLKHFDFEDHTNYELDIKETLTLKPKGFVVKAKSKKIPLGGIPSPSTEQSAKKVRKKAENAHNTPLLVLYGSNMGTAEGTARDLADIAMSKGFAPQVATLDSHAGNLPREGAVLIVTASYNGHPPDNAKQFVDWLDQASADEVKGVRYSVFGCGDKNWATTYQKVPAFIDETLAAKGAENIADRGEADASDDFEGTYEEWREHMWSDVAAYFNLDIENSEDNKSTLSLQFVDSAADMPLAKMHGAFSTNVVASKELQQPGSARSTRHLEIELPKEASYQEGDHLGVIPRNYEGIVNRVTARFGLDASQQIRLEAEEEKLAHLPLAKTVSVEELLQYVELQDPVTRTQLRAMAAKTVCPPHKVELEALLEKQAYKEQVLAKRLTMLELLEKYPACEMKFSEFIALLPSIRPRYYSISSSPRVDEKQASITVSVVSGEAWSGYGEYKGIASNYLAELQEGDTITCFISTPQSEFTLPKDPETPLIMVGPGTGVAPFRGFVQARKQLKEQGQSLGEAHLYFGCRSPHEDYLYQEELENAQSEGIITLHTAFSRMPNQPKTYVQHVMEQDGKKLIELLDQGAHFYICGDGSQMAPAVEATLMKSYADVHQVSEADARLWLQQLEEKGRYAKDVWAG
modifications: cytochrome P450NADPH-P-450 reductase precursor, cytochrome P450 (BM3), CYP102A1
0.1 mol % catalyst loading (2 μM), 2 mM azide 1, 2 mM NADPH
  TTN: 82
0.1 mol % catalyst loading, (S−R)/(S+R)
  % ee: 47%
